Assay results as given in patent US6133431.

Experiments:
IgG in human serum [1] = test: batch adsorption from human serum with 20 µg/ml Model IC, peptide on GCL2000m gel (2.6 mg/ml), not sterilised, N-Assay TIA kit
[2] = target: thermally coagulated immunoglobulin complexes; test: batch adsorption from human serum with 20 µg/ml Model IC, peptide on GCL2000m gel (2.6 mg/ml), not sterilised, C1q-CIC enzyme immunoassay
[3] = target: thermally coagulated immunoglobulin complexes; test: batch adsorption from human serum with 20 µg/ml Model IC, peptide on GCL2000m gel (2.1 mg/ml), 37 °C 2 h, not sterilised, C1q-CIC enzyme immunoassay
IgG in human serum [4] = test: batch adsorption from human serum with 20 µg/ml Model IC, peptide on GCL2000m gel (2.1 mg/ml), 37 °C 2 h, not sterilised, N-Assay TIA kit
[5] = target: thermally coagulated immunoglobulin complexes; test: batch adsorption from human serum with 20 µg/ml Model IC, peptide on AF-Torecyl Toyopearl 650 (3.6 mg/ml), not sterilised, C1q-CIC enzyme immunoassay
IgG in human serum [6] = test: batch adsorption from human serum with 20 µg/ml Model IC, peptide on AF-Torecyl Toyopearl 650 (3.6 mg/ml), not sterilised, N-Assay TIA kit
IgG in human serum [7] = test: batch adsorption from human serum with 20 µg/ml Model IC, peptide on GCL2000m gel (2.5 mg/ml), not sterilised, N-Assay TIA kit
[8] = target: thermally coagulated immunoglobulin complexes; test: batch adsorption from human serum with 20 µg/ml Model IC, peptide on GCL2000m gel (2.5 mg/ml), not sterilised, C1q-CIC enzyme immunoassay
[9] = target: thermally coagulated immunoglobulin complexes; test: batch adsorption from healthy human serum with 20 µg/ml thermally coagulated complexes, peptide on Thiopropyl Sepharose 6B (0.8 mg/ml), 37 °C 2 h, supernatant by C1q-CIC kit
[10] = target: IgG4 subclass in human serum; test: batch adsorption from the serum of a healthy subject, peptide on Thiopropyl Sepharose 6B (0.8 mg/ml), supernatant by immune diffusion (SRID)
[11] = target: IgG1 subclass in human serum; test: as above
[12] = target: IgG3 subclass in human serum; test: as above
[13] = target: IgG2 subclass in human serum; test: as above
[14] = target: circulating immune complexes in the serum of a patient suffering from rheumatism; test: batch adsorption from the serum of a patient suffering from rheumatism, peptide on Thiopropyl Sepharose 6B (0.8 mg/ml), 37 °C 2 h, supernatant by C1q-CIC kit
IgG in human serum [15] = test: batch adsorption from the serum of a healthy subject, peptide on Thiopropyl Sepharose 6B (0.8 mg/ml), 37 °C 2 h, supernatant by N-Assay TIA kit
IgM in human serum = test: as above
[16] = target: thermally coagulated immunoglobulin complexes; test: batch adsorption from human serum with 20 µg/ml Model IC, peptide on GC700m gel (4.0 mg/ml), not sterilised, C1q-CIC enzyme immunoassay
IgG in human serum [17] = test: batch adsorption from human serum with 20 µg/ml Model IC, peptide on GC700m gel (4.0 mg/ml), not sterilised, N-Assay TIA kit
[18] = target: thermally coagulated immunoglobulin complexes; test: batch adsorption from human serum with 20 µg/ml Model IC, peptide on GC700m gel (2.6 mg/ml), not sterilised, C1q-CIC enzyme immunoassay
IgG in human serum [19] = test: batch adsorption from human serum with 20 µg/ml Model IC, peptide on GC700m gel (2.6 mg/ml), not sterilised, N-Assay TIA kit

B1: MP47K3 peptide (peptide)
peptide: MTTYKLVINGKTLKGETTTKAVDAETAEKAFKQYANDNGVDGVWTYDPATKTFTVTEKKK
IgG adsorption ratio (%) (IgG in human serum [1]): 70% | IC adsorption ratio (%) [2]: 35%

B2: MK3P47 peptide (peptide)
peptide: MKKKTTYKLVINGKTLKGETTTKAVDAETAEKAFKQYANDNGVDGVWTYDPATKTFTVTE
IC adsorption ratio (%) [3]: 35% | IgG adsorption ratio (%) (IgG in human serum [4]): 85%

B3: MK3-7M peptide (peptide)
peptide: MKKKTTYKLILNGKTLKGETTTKAVDAATAEKVFKQYANDNGVDGEWTYDPATKTFTVTE
IC adsorption ratio (%) [5]: 35% | IgG adsorption ratio (%) (IgG in human serum [6]): 75%

B4: MK3G56 peptide (peptide)
peptide: MKKKTTYKLVINGKTLKGETTTKAVDAETAEKAFKQYANDNGVDGVWTYDDATKTFTVTE
IgG adsorption ratio (%) (IgG in human serum [7]): 70% | IC adsorption ratio (%) [8]: 30%

B5: peptide having a sequence consisting of 57 residues of domain C3 of protein G with cysteine added to an N-terminus (peptide)
peptide: CTTYKLVINGKTLKGETTTKAVDAETAEKAFKQYANDNGVDGVWTYDDATKTFTVTE
adsorption ratio of thermally coagulated complexes (%) [9]: 41.7% | adsorption ratio of IgG subclasses (%) [10]: 65.7% | adsorption ratio of IgG subclasses (%) [11]: 93.2% | adsorption ratio of IgG subclasses (%) [12]: 63.2% | adsorption ratio of IgG subclasses (%) [13]: 78.9% | adsorption ratio of immune complexes (%) [14]: 29.3% | adsorption ratio of immunoglobulins (%) (IgG in human serum [15]): 83.4% | adsorption ratio of immunoglobulins (%) (IgM in human serum): 2.7%

B6: MG56 peptide (peptide)
peptide: MTTYKLVINGKTLKGETTTKAVDAETAEKAFKQYANDNGVDGVWTYDDATKTFTVTE
IC adsorption ratio (%) [16]: 30% | IgG adsorption ratio (%) (IgG in human serum [17]): 65%

B7: MP47 peptide (peptide)
peptide: MTTYKLVINGKTLKGETTTKAVDAETAEKAFKQYANDNGVDGVWTYDPATKTFTVTE
IC adsorption ratio (%) [18]: 35% | IgG adsorption ratio (%) (IgG in human serum [19]): 60%

B8: MP47C peptide (peptide)
peptide: MTTYKLVINGKTLKGETTTKAVDAETAEKAFKQYANDNGVDGVWTYDPATKTFTVTEC
IC adsorption ratio (%) [16]: 65% | IgG adsorption ratio (%) (IgG in human serum [17]): 90%
